Reference: patent US20140363427A1 (CRUCELL HOLLAND B V, published 2014)

B1: Fab 69F6 (Fab, V domains shown)
VH: QMQLVQSGAEVRKPGESLKIACKGSGYSFTSYWIAWVRQMPGKGLEWLGIIFPNDSDATYSPSFQGQVTMSVDKSISTAYLQWNSLKASDTAVYFCARQYYLGSFESWGQGTTVTVSS
VL: EIVLTQSPSSLSASVGDRVTISCQASQDISNYLNWYQQKPGKAPRLLIYDASYLDTGVPSRFSGSGSGTDFTFTISSLQPEDFATYYCQQYDDLRGGFTFGPGTKVDVKR
notes: also called 69F6 Fab
B2: Fab 56E11 (Fab, V domains shown)
VH: EVQLQESGPGLVKPSETLSLTCSVSGVSINSNNYFWAWIRQPPGKGLEWIGNIYYGGSTHYNASLQSRVTISVDTSKSQFSLKLNSVTSADTAVYYCAASESIFWDYYYGLDVWGQGTTVTVSS
VL: QAVLTQPPSASGSPGQSVTISCTGTSSDVGGYNYVSWYQQHPGKAPRLIISEVTKRPSGVPGRFSGSKSGNTASLTVSGLQAEDEADYYCSSYAGSRHVVFGGGTKLTVLG
notes: also called 56E11 Fab
B3: Fab 17C9 (Fab, V domains shown)
VH: QVQLQQWGAGLVRPSETLSLTCAVYGDSFNDYFWTWIRQTPGKGLEWIGEISHSGSTNYSPSLKSRVTISVDTSKNQFSLKLSAVTAADTTVYFCARGVRSRPPPSYRGSGSPPYYHYGMDVWGQGTTVTVSS
VL: EIVLTQSPSTLSASVGDRVTITCRASQNINTWLAWYQQKPGKAPKLLIYAASFLQSGVPSRFSGSGSGTDFTLTISNLQPEDFATYFCQQANSFPRTFGQGTKVEVKR
notes: also called 17C9 Fab
B4: Fab 38F10 (Fab, V domains shown)
VH: EVQLLESGGDVVQPGKSLRLSCTASGFSITDFGIHWVRQAPGKGLEWVALISYNEVNIHYGESVRGRFTISRDIAKNTVYLQMNGLRPEDTGVYFCARDVWEDSWLSLACFQEWGQGSLVVVSS
VL: DIQLTQSPPTLSASVGDRVSMTCRASQSISNWLAWYQQKPGKAPKLLIQKASNLEDGVPSRFTASGFGTEFTLTISSLQPDDFATYYCQQYNSYSGLSFGGGTKVDIKR
B5: Fab 104E5 (Fab, V domains shown)
VH: QVQLEQSGAEVKKPGSSVKVSCKPSGGTFDTYTISWVRQAPGQRLEWLGRIIPSLGETNYAHKLQGRVTITADKATSVVYMDLSDLTSEDAAVYYCAFRITGPVDWVWDYGMDVWGQGTTVSVSS
VL: DIQMTQSPSSLPASVGDRVTITCRASQNIKTYLNWYQQKPGRAPKLLISAVSNLQSGVPSRFSGTGSGTDFTLTISSLQPEDFATYYCQQSFSIPLTFGGGAKVEIKR
B6: Fab 90D3 (Fab, V domains shown)
VH: QVQLVESGGGLVKPGGSLRLSCVGSGFTLKNYEMNWVRQAPGQGLQYISYISSSGNVVKYVDSVQGRFTISRDNAGNSLYLQMNNLRAEDTATYYCVRGFSIDKYDSSVDEYWGQGIAVTVSS
VL: AIRLTQSPSSLSASVGDRVSITCRASQSISNFLNWYQQKPGRAPKLLISAASSLQGGVPSRFSGSGSGTDFTLTISSLQPEDFATYYCQQTYISLYTFGQGTKLEIKR
B7: Fab 30D8 (Fab, V domains shown)
VH: EVQLLQSGAELKKPGASVKISCKTSGFTFSGHTIAWVRQAPGQGLEWMGWVSTNNGNTEYAQKIQGRVTMTMDTSTSTVYMELRSLTSDDTAVYFCAREWLVMGGFAFDHWGQGTLLTVSS
VL: QSVLTQASSVSVAPGQTARITCGANNIGSQNVHWYQQKPGQAPVLVVYDDRDRPSGIPDRFSGSNSGNTATLTISRVEAGDEADYYCQVWDSSRDQAVIFGGGTKLTVLG
B8: IgG form of 38F10 (antibody, V domains shown)
VH: B4 VH
VL: B4 VL
B9: Motavizumab IgG (antibody, V domains shown)
VH: QVTLRESGPALVKPTQTLTLTCTFSGFSLSTAGMSVGWIRQPPGKALEWLADIWWDDKKHYNPSLKDRLTISKDTSKNQVVLKVTNMDPADTATYYCARDMIFNFYFDVWGQGTTVTVSS
VL: DIQMTQSPSTLSASVGDRVTITCSASSRVGYMHWYQQKPGKAPKLLIYDTSKLASGVPSRFSGSGSGTEFTLTISSLQPDDFATYYCFQGSGYPFTFGGGTKVEIK
B10: IgG form of 17C9 (antibody, V domains shown)
VH: B3 VH
VL: B3 VL
B11: IgG form of 104E5 (antibody, V domains shown)
VH: B5 VH
VL: B5 VL
B12: IgG form of 30D8 (antibody, V domains shown)
VH: B7 VH
VL: B7 VL
notes: also called IgG 30D8; 30D8 Mab
B13: IgG form of 69F6 (antibody, V domains shown)
VH: B1 VH
VL: B1 VL
B14: IgG form of 56E11 (antibody, V domains shown)
VH: B2 VH
VL: B2 VL
B15: IgG form of 14G3 (antibody, V domains shown)
VH: QVQLQESGPGLVKPSQTLSLTCTVSGASISSDNHYWSWIRQPPGKGLEWIASIYYTGGTNYNPSLKSRLALSIDTSGDQFSLKLSSVTAADTAVYYCVRGLFFITARPYWYFDLWGRGTLVAVSS
VL: DVVMTQTPLSLSVTPGEPASISCRSSQSLLDSDDGNTYLDWYLQKPGQSPQLLIYTLSYRASGVPDRFSGSGSGTDFTLKISRVEADDVGIYYCMQRMEFPFTFGQGTRLDIKR

These binders were tested against T1, recombinant RSV F protein, strain A2, extracellular domain (Respiratory Syncytial Virus strain A2, UniProt P03420 26-524) (assay: ELISA, purified Fab, estimated EC50).
T1 construct: also called RSV F1 lysate (recombinant); RSV F lysate

Row | Binder | EC50
1 | B1 | 0.135 nM
2 | B2 | 0.545 nM
3 | B3 | 0.136 nM

What follows are binders tested against T2, native RSV F protein from the RSV A2 strain (Respiratory Syncytial Virus strain A2, UniProt P03420 26-574) (assay: ELISA, purified Fab, estimated EC50).
T2 construct: also called HEp2 lysate (native); purified RSV F protein (native)

Row | Binder | EC50
4 | B4 | 0.177 nM
5 | B5 | 0.08 nM

What follows are binders tested against T2, native RSV F protein from the RSV A2 … (assay: cell-based or functional assay).

Row | Binder | ED50, plaque reduction, RSV A2 | ED50, plaque reduction, RSV A2 (mass concentration)
6 | B4 | 0.8 nM | 0.04 µg/mL
7 | B1 | 0.26 nM | –
8 | B2 | 0.93 nM | –
9 | B6 | 0.8 nM | –
10 | B3 | 0.352 nM | –
11 | B5 | 0.58 nM | 0.029 µg/mL
12 | B7 | 0.107 nM | –

Target: T2, native RSV F protein from the RSV A2 …
Assay: cell-based or functional assay
Remark: another data set of the same source

Row | Binder | ED50, plaque reduction, RSV A2
13 | B8 | 0.553 nM
14 | B9 | 0.36 nM
15 | B10 | 0.363 nM
16 | B11 | 0.8 nM
17 | B12 | 0.089 nM

What follows are binders tested against F protein of RSV B-1 (respiratory syncytial virus B-1, UniProt O36634 26-574) (assay: cell-based or functional assay).

Row | Binder | ED50, plaque reduction, RSV B-1
18 | B8 | 1.4 nM
19 | B13 | > 67 nM
20 | B9 | 0.833 nM
21 | B14 | 0.295 nM
22 | B15 | 10.7 nM
23 | B10 | 0.329 nM
24 | B11 | 1.7 nM
25 | B12 | 0.055 nM

The binders below were run against F protein of RSV B-wash (strain 18537) (respiratory syncytial virus B, strain …, UniProt P13843 26-574) (assay: cell-based or functional assay).

Row | Binder | ED50, plaque reduction, RSV B/wash
26 | B8 | 5.3 nM
27 | B13 | > 67 nM
28 | B9 | 2.9 nM
29 | B14 | 0.282 nM
30 | B15 | 4.5 nM
31 | B10 | 0.86 nM
32 | B11 | 8 nM
33 | B12 | 0.115 nM

These binders were tested against F protein of the parental RSV A2 strain (Example 11) (Respiratory Syncytial Virus strain A2, UniProt P03420 26-574) (assay: cell-based or functional assay).

Row | Binder | ED50, plaque reduction, RSV A2 parental
34 | B1 | 0.256 nM
35 | B3 | 0.436 nM
36 | B12 | 0.096 nM

Target: F protein of the parental RSV A2 strain (Example 11) (Respiratory Syncytial Virus strain A2, UniProt P03420 26-574)
Assay: cell-based or functional assay
Remark: another data set of the same source

Row | Binder | ED50, plaque reduction, RSV A2 parental
37 | B9 | 0.519 nM

These binders were tested against T1, recombinant RSV F protein, strain A2, … (assay: ELISA, IgG titrated, estimated EC50).

Row | Binder | EC50
38 | B13 | 0.063 nM
39 | B14 | 0.073 nM
40 | B15 | 0.251 nM

What follows are binders tested against T2, native RSV F protein from the RSV A2 … (assay: ELISA, IgG titrated, estimated EC50).

Row | Binder | EC50
41 | B8 | 0.035 nM
42 | B9 | 0.027 nM
43 | B10 | 0.059 nM
44 | B11 | 0.0145 nM

Each binder was assayed against T1, recombinant RSV F protein, strain A2, … (assay: comparison of ELISA EC50).

Row | Binder | fold less affinity than the IgG form of 30D8
45 | B13 | ~10 fold
46 | B14 | ~10 fold

The binders below were run against T3, RSV F A2 mutant V278M (human RSV, A2 strain, UniProt P03420 26-574) (assay: mutant F in HEK 293 cells).
T3 construct: whole, on cells

Row | Binder | ratio of binding 58C5/30D8
47 | B12 | 3.1
